Results published in the supplement of paper PMC9170038.

Test system: K4 kissing-loop RNA reporter
Test: apparent KD of K4 kissing-loop reporter; higher = weaker reporter binding
Details: Eterna round: R107; input ligand: FMN 200 uM
Experimental: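 RNA-MaP round R107: designed RNA switches with theophylline, tryptophan, arginine or FMN aptamers are transcribed on-chip within common flanks. They are titrated with a labelled K4 kissing-loop RNA reporter in RNA-MaP buffer (100 mM Tris pH 7.5, 80 mM KCl, 4 mM MgCl2), without ligand or with the indicated ligand. Median apparent KD per design.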
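Further: bound reporter read as fluorescence of individual clusters on recovered sequencing chips by microscopy, with normalized cluster intensities fitted with a binding model.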

| Sequence | apparent KD of K4 kissing-loop reporter |
| --- | --- |
| UGUCAUUGGUCGGCCGCCACUAAAUAAAAGAGUGAUGUUCUUAAGACGGAUCGAAAGAUCUGUCAUAGGACCGGGACCGAUGACU [TrypBS 21 #SwitchBubble #StaticStem] | 1200 nM |
| AAACGUUGGUGCGAUACCAGCUGCUCGGAAACGAGCUUGCUGGAGUGAUGUUCCAGGAAAAGCCCUUGGCAGCGCACCGACGAAA [MAT - Same State Theophlline B - Mod of Eli - D27] | 856 nM |
| UUUAGGAACUGAGGAUAUUCGAAGAAAUAUAGUGAUGUUAUAUAAGGAGGAGGAGGGAGGGAGGAAGGAGAAGGCAGAAGAGGAG [ExFMNB.E] | 368 nM |
| CCAUUCAGUUACGAUACCAGUCUAAUAUAUUUGAUCAAAACCCUCGCCGAGUGAUGUUCGGACCCUUGGCAGCGUCUGGGACAGG [xxcetmullin] | 481 nM |
| CCUAUCUCAUACGAUACCAGUGAUUAACCAGUGAUGUUGGAAUAACCAAGGAAUAUUUUUCACCCUUGGCAGCGUAUGGGAUAGG [Ex Theophylline B K4 26] | 78 nM |
| AAGUGUGUGGCGGCCGCCACUAGAAUCCAGUGAUGUUGGAGAUAUCACGUAAGUGAUAUCCACCAUAGGACCGGGCCAUAUAGAA [Same State - Tryptophan B (Freestyle 13)] | 1300 nM |
| UAUAUGCAGUGAUGUUGCGGCACACUUCCGAAGGAUAUGUCCGGUGACAGAAGGUCGGUCCAUGGGACAUCACGUGUGCUUGAUG [theeternabot_exclusion_KL_FMN_A_15] | 542 nM |
| AAAAUAAAUCAGUGAUGUUGGUAUCUGGAUACCAGCGAUAAUAGUCGCCCUUGGCAGCCAUGGACGUACAAAAUAAGUACGUCCU [MatMod 19 - Jieux - Same State - Theophylline A] | 221 nM |
| UAUAAGCGCAGAGGAUAUACUAGCUUUCACUAGUGCAGUGAUGUUGCACUAGACCAGCUGUACAUAGUAGAAGGCUGCGUUCCUU [FMN B SS t1] | 89.1 nM |
| AUGGCACCUGCGGCCGCCACUCACUCCGGGCUGCUGGCCAGUGAUGUUGGUACGGCUGCCGGUUAGAGGACCGGGCAGGAGCUAA [Rienisdite] | 88.8 nM |
| GCCGUACGCAUGGAUACCAGCUAGACCGAGUGAUGUUCAGGUCUGAAUGCCGGUAAUAAGAGCCCUUGGCAGCCAUGCGUACGGC | 361 nM |
| GGAUAGGACACGGCCGCCACUACCGAGGAUACUCGAAACAUUUCCUCAGAUGAGUGAUGUUCAUCUAGGACCGGGUGUCCUAUCG [KL-XTryp-B19 #analogue] | 125 nM |
| UAAUAUCAACUUGUAGGAGUGAUGUUCCGCCGAGGACCGGUACGGCCGCCACUCGACAAAAUCUCAGUGUGGUACCUAGGAAUUU [theeternabot_exclusion_KL_Trp_A_24] | 406 nM |
| GAUAGGAAACUAUCAAAUCGGGAAACCGAUACCAGUAUGGAUUCAUACCCUUGGCAGCGGGAUUAUAAAAUAGGAGUGAUGUUCC [Theophylline A K4 16] | 219 nM |
| UGAUUUAACUGAAGGAGCGGCAAUUGAUAAGUAAAUAUAGUGAUGUUAUAUAAGAUAGAGAGCCAGGUAGGUCGCAGAGGUAUUU [ExArgB.N] | 173 nM |
| UAAUCACUCGAACUGCAAGUACGAGUGGAACGAGGACCGGUACGGCCGCCACUCGAUAACUUGCAGUGAUGUUGCAAGUAAGAAU [(T)''-(K)'-(T)'-(T1)-(T2)-(K1)-(K2)_Design7] | 60.5 nM |
| UUUUUGGUUUAGAGUGAUGUUCCUUGUUUUCGAGGACCGGUACGGCCGCCACUCGAAAAGAAAAGAAAAGAAAAGAGUGAUGUUU [BDazzled - #1 SS Tryptophan A] | 342 nM |
| UAACCGCAGAAAGAUACCAGUGAGUGAUGUUCCUCGAUCCUGUGGUUCAUUCUCUUUACCCACCCUUGGCAGCUUCAAAUGUGAC [theeternabot_exclusion_KL_Theo_B_4] | 831 nM |
| GCGUUACUGAAAGGAUAUGAUCAACAUAGUGGUCAGUGAUGUUGGCAGGCCUCGUGGCGAGGUAGAUCAGAAGGUUCAUUACGAC [theeternabot_sameState_KL_FMN_B_11] | 415 nM |
| CUAGCCGGGAAAGGAUAUACACACGCACAUAACGAGUGAUGUUCGUUAAUACCAACUUGGUUAACUGUAGAAGGUUCAUCGUCAC [theeternabot_sameState_KL_FMN_B_36] | 579 nM |
| UUUUAAUAAAAGGAUACCAGUACAAAUAAAGUACAUUAAUAGUAGAGUGAUGUUCUAAAGUACCCUUGGCAGCUUAGAGUAAGUU [#17 K4 Theophylline B Exclusion] | 120 nM |

| Sequence | apparent KD of K4 kissing-loop reporter |
| --- | --- |
| UGAUACCAGACGGCCGCCACUGCACCAGUCAAUGACUGAGUGUAGUAAUGCUCAGUGAUGUUGAGUAGGACCGGGUCUGGUAUCU [Mod of Eli's TrypBX 8 v1] | 141 nM |
| GAUUACAACAGAGUGAUGUUCUGACUUUCUCGAGGACCGGUACGGCCGCCACUCGUUAAACAAAGUGGUUUGCCAAGGCCAACUU | 139 nM |
| GGCACGUUCCCUUGAUCAGUGAUGUUGUUUCGAGGACCGGUACGGCCGCCACUCGCUCGGCGUUCGCCCAGGCCCGGAAAACUGC [theeternabot_exclusion_KL_Trp_A_13] | 241 nM |
| UGUACCGAGUCAGGAUAUAGCGUCGAAAGACGAAUCCUAGUGAUGUUAGGGAUCUGCGAAAGCAGUCUAGAAGGGACUUGGUACU [FmnBS 26 A19+U68] | 275 nM |
| CGAUUUGCUUCAGCCUUAGUGAUGUUAAGGCGAGGACCGGUACGGCCGCCACUCGUAGGUUAUGUGCACGGCGGCGCUAAGGGCC [theeternabot_exclusion_KL_Trp_A_36] | 109 nM |
| CGGAUGUAGUGAUGUUAUAUAAGAAGUAGACGAGGACCGGUACGGCCGCCACUCGAAACGGCUACUAGCGCGUUGCGAGGUGUGC [ExTryptoA.Ch] | 651 nM |
| UUCUUGAUGGAAACAUCGAGGAUCACUGAUACCAGUAUCGAUAGAUACCCUUGGCAGCAGUGUCGGUGGUCACGAGUGAUGUUCG [Ex Theophylline A K4 12] | 718 nM |
| GGAUCCUAGGCGGCCGCCACUCCAAUUGGCCGAAAGGCCUGAUACCGAGUGAUGUUCGGUUGGAGGAGGACCGGGCCUAGGAUCC [#2 Exclusion - Tryptophan B Attempt #2 (HarryS)] | 144 nM |
| UACAGGGAUAGUGAUGUUAUCCCAUGUGAUACCAGUGCCAUCCAACACCCUUGGCAGCAUACGGGCAGUGAUGUUGUUCUUGGUU [Exclusion Theophylline A GF 13] | 96.1 nM |
| AUGUACACGAUAGUGUACUCCUAGUGAUGUUAGGAUAUGCAGAUAUGCAGAAGGGACAAGUCAUCUGACAAUAGUCGGAUGACAA [FmnAX 10 #OpenEnded #K4Early] | 179 nM |
| AGGUGAGACUGAAGGAGCGAUCGCGCUAGUGAUGUUGGCGAGCAUGACAAAGUCAUGCACGAUCAGGUAGGUCGCAGUCUUACUC [Omei KL Arginine B SS B v1] | 128 nM |
| AAGAAUAAUCUUGCAGUGAUGUUGCAAGAUACCAGCAUCGAAAGAUGCCCUUGGCAGCUUGAAAACAUCACUAUCAAGCUGCAUA [Design2] | 620 nM |
| UUAAUAAUUCAAGGAUAUGUUUUCUAUUUCGAGUGAUGUUCGGAAUUAAUAAAUUUAAAAGAUUAUACAGAAGGUGAUAAAUAGU [Cynwulf-mod#2] | 87.1 nM |
| UGUCAUUGGUCUGAUACCAGUACCCUUGGCAGCCAAGGAGUGAUGUUCCAAGGAUACCAGUGCCCUUGGCAGCAGACCGAUGACU [TheoBS 12 #DoubleAptamer #SwitchBubble] | 920 nM |
| UGCCGGGCUGUACGUUACUUAAAUCGCGAUACCAGCGAUACAAUCCGCCCUUGGCAGCGCAGUGAUGUUGCGCGGUCAUUACGGG [theeternabot_exclusion_KL_Theo_A_27] | 100 nM |
| UUAUAUUUUAUAUUUAGUAGAGCUCUAGCUCGAGGACCGGUACGGCCGCCACUCGAGUGAUGUUCGAGUGGGUGAGCUCUACAUU [AK3 EXC Tryptophan A] | 124 nM |
| UCCUAGGUUCGUCGGCGAAAGCCCUGCGAAGGAGCGUGCGAAAGCACAGGUAGGUCGCGCAGUGAUGUUGCACCUAGGUAAUAAA [#SwitchBubble 23 #K4Late] | 1030 nM |
| UAGGUUUAAUCGGCCGCCACUAUCAGAGCGCCAGUGAUGUUGGAGUAACGAUCGUGGCGAGUUAAUAGGACCGGGAUUCAACACA [Velazaer] | 159 nM |
| AUGCGCGCGGCGGCCGCCACUCGCAUGAGAGUGAUGUUCUCGCCGUGCCCGUAAGGGUGCGGUGUGAGGACCGGGCCGGGCUGCG [#2 Same State - Tryptophan B Attempt #20 (HarryS)] | 204 nM |
| GUGCGUAAGUGAUGUUUACGUCAGCUCCGCAAGGAUAUCCUGAUUAGGAGAAGGUGCGGGAACUAAAGACGCUCGUUCUAGCAGG [theeternabot_exclusion_KL_FMN_A_33] | 146 nM |

Same assay, conditions: Eterna round: R107; input ligand: arginine 13.2 mM

| Sequence | apparent KD of K4 kissing-loop reporter |
| --- | --- |
| UGUCAUUGGUCGGCCGCCACUAAAUAAAAGAGUGAUGUUCUUAAGACGGAUCGAAAGAUCUGUCAUAGGACCGGGACCGAUGACU [TrypBS 21 #SwitchBubble #StaticStem] | 891 nM |
| AAACGUUGGUGCGAUACCAGCUGCUCGGAAACGAGCUUGCUGGAGUGAUGUUCCAGGAAAAGCCCUUGGCAGCGCACCGACGAAA [MAT - Same State Theophlline B - Mod of Eli - D27] | 561 nM |
| UUUAGGAACUGAGGAUAUUCGAAGAAAUAUAGUGAUGUUAUAUAAGGAGGAGGAGGGAGGGAGGAAGGAGAAGGCAGAAGAGGAG [ExFMNB.E] | 243 nM |
| CCAUUCAGUUACGAUACCAGUCUAAUAUAUUUGAUCAAAACCCUCGCCGAGUGAUGUUCGGACCCUUGGCAGCGUCUGGGACAGG [xxcetmullin] | 399 nM |
| CCUAUCUCAUACGAUACCAGUGAUUAACCAGUGAUGUUGGAAUAACCAAGGAAUAUUUUUCACCCUUGGCAGCGUAUGGGAUAGG [Ex Theophylline B K4 26] | 38 nM |
| AAGUGUGUGGCGGCCGCCACUAGAAUCCAGUGAUGUUGGAGAUAUCACGUAAGUGAUAUCCACCAUAGGACCGGGCCAUAUAGAA [Same State - Tryptophan B (Freestyle 13)] | 758 nM |
| UAUAUGCAGUGAUGUUGCGGCACACUUCCGAAGGAUAUGUCCGGUGACAGAAGGUCGGUCCAUGGGACAUCACGUGUGCUUGAUG [theeternabot_exclusion_KL_FMN_A_15] | 536 nM |
| AAAAUAAAUCAGUGAUGUUGGUAUCUGGAUACCAGCGAUAAUAGUCGCCCUUGGCAGCCAUGGACGUACAAAAUAAGUACGUCCU [MatMod 19 - Jieux - Same State - Theophylline A] | 117 nM |
| UAUAAGCGCAGAGGAUAUACUAGCUUUCACUAGUGCAGUGAUGUUGCACUAGACCAGCUGUACAUAGUAGAAGGCUGCGUUCCUU [FMN B SS t1] | 116 nM |
| AUGGCACCUGCGGCCGCCACUCACUCCGGGCUGCUGGCCAGUGAUGUUGGUACGGCUGCCGGUUAGAGGACCGGGCAGGAGCUAA [Rienisdite] | 103 nM |
